Source: patent publication US20250051449A1 (SURFACE ONCOLOGY, published 2025)
Numbering of substitutions follows the chain as printed. Values belong to the binder of their own block, whether it stands above or below them.

Experiments:
[1] = target: T1, human CD112R expressed on Jurkat cells (human, UniProt Q6DKI7 1-326); experiment: flow cytometry, wild type Jurkat cells, 0.63 ug/mL antibody
T1 construct: whole, on cells; Used for both Jurkat-CD112R OE cells and wild type Jurkat cells; which cells is said under assay; also called PVRIG; Jurkat-CD112R OE
T1 sequence (looked up): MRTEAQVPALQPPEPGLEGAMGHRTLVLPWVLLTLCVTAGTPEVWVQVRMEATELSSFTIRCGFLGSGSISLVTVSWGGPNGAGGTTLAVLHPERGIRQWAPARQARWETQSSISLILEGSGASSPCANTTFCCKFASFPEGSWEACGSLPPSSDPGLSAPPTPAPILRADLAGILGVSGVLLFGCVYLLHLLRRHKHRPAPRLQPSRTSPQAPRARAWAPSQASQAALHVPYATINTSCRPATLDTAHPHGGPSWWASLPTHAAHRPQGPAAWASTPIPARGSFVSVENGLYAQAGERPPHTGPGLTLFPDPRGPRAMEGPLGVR
Protocol: (§1) The ability of anti-CD112R antibodies to bind to CD112R expressed on cells was evaluated. 1×10⁵ Jurkat cells (acute T cell leukemia cell line, ATCC #TIB-152) that were either wild type or engineered to over-express human CD112R (Jurkat-CD112R OE) were added to each well of a 96-well V bottom plate and stained with either anti-CD112R antibodies or an IgG1 isotype control (0.63 μg/mL) for 1 hour at 4° C. Cells were washed twice with PBS+2% FCS and resuspended with Alexa Fluor® 647 anti-human IgG Fc antibody (Biolegend, Cat #409320) diluted 1:100 in PBS+2% FCS and incubated at 4° C. for 30 minutes. Cells were subsequently washed twice and resuspended in PBS+2% FCS. Cellular data was acquired using a LSRFortessa X-20 (BD Biosciences) and analyzed with FlowJo software (Tree Star).

[2] = target: T2, mouse CD112R-hIgG4 fusion protein (mouse; human); experiment: ELISA: coated antibody, titrated mouse CD112R-hIgG4, anti-IgG4 HRP
T2 construct: also called soluble mouse CD112R; soluble murine CD112R
Protocol: The ability of anti-CD112R antibodies to bind to soluble mouse CD112R was evaluated by ELISA. Briefly. 96 well Nunc Maxisorp plates were coated with 1 μg/mL of anti-CD112R antibodies or isotype control (Biolegend. Cat #403502) in PBS overnight at 4° C. […] After blocking, plates were washed 6× with PBST. Next. 100 μL of a mouse CD112R-hIgG4 fusion protein in PBS+1% BSA was added at a final starting concentration of 10 μg/mL, with 4-fold serial dilutions. Plates were incubated at room temperature for 1.5 hours. Next plates were washed 6× with PBST and then incubated with anti-IgG4 HRP (Thermo Fisher, Cat #MA1-33437) in 100 μL for 1 hour at room temperature. Plates were then washed 6× with PBST and developed with TMB substrate (Life Technologies. Cat #002023). The reaction was stopped with an equal volume of stop solution (Life Technologies. Cat #SS04). Absorbance at 450 nm (O.D. 450) was measured on a SpectraMax plate reader.

[3] = target: T1, human CD112R expressed on Jurkat cells; experiment: flow cytometry, Jurkat cells over-expressing human CD112R, 0.63 ug/mL antibody
Protocol: as §1
Results are depicted in FIG. 1. Quantitation of antibody binding to Jurkat-CD112R OE cells was assessed by the geometric mean fluorescent intensity (gMFI) of the Alexa Fluor® 647 signal.

[4] = target: T2, mouse CD112R-hIgG4 fusion protein; experiment: blocking ELISA: coated mouse CD112, antibody plus mouse CD112R-hIgG4 (2 ug/mL)
Protocol: The ability of species cross reactive anti-CD112R antibodies to block mouse CD112R binding to mouse CD112 was evaluated by ELISA. Briefly. 96 well Nunc Maxisorp plates were coated with 1 μg/mL of mouse CD112 (Sino Biological. Cat #50318-M08H) in PBS overnight at 4° C. […] After blocking, plates were washed 6× with PBST. Next. 50 μL of anti-CD112R antibodies or isotype control (Biolegend. Cat #403502) in PBS+1% BSA were added at a final starting concentration of 40 μg/mL, with 2-fold serial dilutions. 50 μL of a mouse CD112R-hIgG4 fusion protein was also added to each well at a final concentration of 2 μg/mL. Plates were incubated at room temperature for 1.5 hours. Next plates were washed 6× with PBST and then incubated with anti-IgG4 HRP (Thermo Fisher, Cat #MA1-33437) in 100 μL for 1 hour at room temperature. Plates were then washed 6× with PBST and developed with TMB substrate (Life Technologies. Cat #002023). The reaction was stopped with an equal volume of stop solution (Life Technologies. Cat #SS04). Absorbance at 450 nm (O.D. 450) was measured on a SpectraMax plate reader.
Results are depicted in FIG. 19 and Table 11. […] Percent inhibition was calculated as [100−((test sample O.D. 450/Max O.D. 450)*100%)] Max O.D. 450 was defined as absorbance at 450 nm in the absence of antibody.

[5] = target: T1, human CD112R expressed on Jurkat cells; experiment: flow cytometry competition on Jurkat-CD112R OE cells; competitor biotinylated his-tagged human CD112
Protocol: The ability of anti-CD112R antibodies to block CD112 binding to CD112R expressing cells was evaluated. 1×10⁵ Jurkat cells (acute T cell leukemia cell line, ATCC #TIB-152) that were engineered to over-express human CD112R (Jurkat-CD112R OE) were added to each well of a 96-well V bottom plate and stained with serial dilutions of either anti-CD112R antibodies or an IgG1 isotype control (highest concentration, 10 μg/mL) for 1 hour at 4° C. Cells were washed twice with PBS+2% FCS and resuspended with biotinylated his-tagged human CD112 (3 μg/mL) (BPS Bioscience, #71234) and PE Streptavidin (5 μg/mL) (Biolegend, #405204) in PBS+2% FCS and incubated at 2 hours at 4° C. Cells were subsequently washed twice and resuspended in PBS+2% FCS. Cellular data was acquired using a LSRFortessa X-20 (BD Biosciences) and analyzed with FlowJo software (Tree Star).
Results are depicted in FIG. 2A and Table 2. […] Percent inhibition was calculated as [100−((test sample MFI/Max MFI)*100%)]

B1: Antibody 46 (antibody, V domains shown)
VH: EVQLVESGGGLVQPGRSLRLSCTASGFTFGDYAMSWFRQAPGKGLEWVGFIGSKAYGGTTEYTASVKGRFTISRDGSKSIAYLQMNSLKTEDTAVYYCARGPRRYTYGMDVWGQGTTVTVSS
VL: DIQMTQSPSSLSASVGDRVTITCRASQSISSYLNWYQQKPGKAPKLLIYAASSLQSGVPSRFSGSGSGTDFTLTISSLQPEDFATYYCQQSSTPLTFGGGTKVEIK
notes: in the mouse tumor studies it was used as mouse IgG2a; also called antibody clone number 46; clone 46
gMFI (fold increase over isotype) [1]: 4.2 fold increase over isotype
EC50 [2]: 0.181 mg/L
gMFI (fold increase over isotype) [3]: 23.8 fold increase over isotype
mouse CD112/CD112R blocking ELISA max inhibition (%) [4]: 88%
CD112 blocking max inhibition (%) [5]: 95.5%
IC50 [5]: 0.0162 mg/L

B2: Antibody 32 (antibody, V domains shown)
VH: QVQLVQSGAEVKKPGSSVKVSCKASGGTFSSYAISWVRQAPGQGLEWMGGIIPISGTANYAQKFQGRVTITADESTSTAYMELSSLRSEDTAVYYCARDTGRGYTRHFWFDPWGQGTLVTVSS
VL: B1 VL with S92D, T93I, P94L, L95Y
notes: Purified as IgG; compared with an IgG1 isotype control and detected with anti-human IgG Fc; also called antibody clone number 32; parent clone 32
gMFI (fold increase over isotype) [1]: 2.5 fold increase over isotype
EC50 [2]: 0.27 mg/L
gMFI (fold increase over isotype) [3]: 27.9 fold increase over isotype
mouse CD112/CD112R blocking ELISA max inhibition (%) [4]: 0%
CD112 blocking max inhibition (%) [5]: 96%
IC50 [5]: 0.0236 mg/L

B4: Antibody 35 (antibody, V domains shown)
VH: B2 VH with Y32A, G50N, S55V, T57I
VL: B1 VL with S92D, T93I, P94L, L95Y
notes: Purified as IgG; compared with an IgG1 isotype control and detected with anti-human IgG Fc; also called antibody clone number 35; clone 35
gMFI (fold increase over isotype) [1]: 3.3 fold increase over isotype
EC50 [2]: 0.0215 mg/L
gMFI (fold increase over isotype) [3]: 32.1 fold increase over isotype
mouse CD112/CD112R blocking ELISA max inhibition (%) [4]: 24.2%
CD112 blocking max inhibition (%) [5]: 97.4%
IC50 [5]: 0.0162 mg/L

B6: Antibody 36 (antibody, V domains shown)
VH: B2 VH with S30A, S31T, I52F, I54L
VL: B1 VL with S92D, T93I, P94L, L95Y
notes: Purified as IgG; compared with an IgG1 isotype control and detected with anti-human IgG Fc; also called antibody clone number 36; clone 36
gMFI (fold increase over isotype) [1]: 3.5 fold increase over isotype
EC50 [2]: 0.0251 mg/L
gMFI (fold increase over isotype) [3]: 31 fold increase over isotype
mouse CD112/CD112R blocking ELISA max inhibition (%) [4]: 41.6%
CD112 blocking max inhibition (%) [5]: 97.5%
IC50 [5]: 0.0244 mg/L

Second part, the binder after the results:

gMFI (fold increase over isotype) [1]: 4.5 fold increase over isotype
EC50 [2]: 0.412 mg/L
gMFI (fold increase over isotype) [3]: 37.3 fold increase over isotype
mouse CD112/CD112R blocking ELISA max inhibition (%) [4]: 85.7%
CD112 blocking max inhibition (%) [5]: 96.3%
IC50 [5]: 0.0028 mg/L
B3: Antibody 58 (antibody, V domains shown)
VH: B1 VH with A55F, T59E
VL: B1 VL
notes: Purified as IgG; compared with an IgG1 isotype control and detected with anti-human IgG Fc; also called antibody clone number 58; clone 58

gMFI (fold increase over isotype) [1]: 3.4 fold increase over isotype
EC50 [2]: 0.0383 mg/L
gMFI (fold increase over isotype) [3]: 34.2 fold increase over isotype
mouse CD112/CD112R blocking ELISA max inhibition (%) [4]: 28.3%
CD112 blocking max inhibition (%) [5]: 97.4%
IC50 [5]: 0.0219 mg/L
B5: Antibody 33 (antibody, V domains shown)
VH: B2 VH with S30G, S31N, S55P, T57I
VL: B1 VL with S92D, T93I, P94L, L95Y
notes: Purified as IgG; compared with an IgG1 isotype control and detected with anti-human IgG Fc; also called antibody clone number 33; clone 33

gMFI (fold increase over isotype) [1]: 3.8 fold increase over isotype
EC50 [2]: 0.0242 mg/L
gMFI (fold increase over isotype) [3]: 33.8 fold increase over isotype
mouse CD112/CD112R blocking ELISA max inhibition (%) [4]: 20.3%
CD112 blocking max inhibition (%) [5]: 96.9%
IC50 [5]: 0.0132 mg/L
B7: Antibody 34 (antibody, V domains shown)
VH: B2 VH with Y32A, I52F, T57H
VL: B1 VL with S92D, T93I, P94L, L95Y
notes: Purified as IgG; compared with an IgG1 isotype control and detected with anti-human IgG Fc; also called antibody clone number 34; clone 34
